Measured values published in the supplement of paper PMC10567573.

B1: C1orf137 (parent)
chain: LPQETNLTLKVCKPQAPQKLDPTL

Variants of: B1
Assay: protein stability index of a GFP-peptide fusion (GPS, HEK-293T) (PSI 1-6); higher = more stable
Conditions: c terminus: a fixed tail appended
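Further: lentivirally expressed fusions sorted by FACS into six bins by GFP to DsRed ratio, PSI derived from sequencing read proportions per bin multiplied by bin number.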

Protein stability index of substitutions, site by site:
L7: E 4.79 | F 2.92 | G 4.48 | H 4.51 | I 3.4 | K 4.61 | M 4.25 | N 4.66 | P 4.42 | Q 4.56 | R 4.67 | S 4.35 | T 4.33 | V 4.21 | Y 3.89
T8: A 4.3 | C 4.15 | D 3.21 | E 4.14 | F 2.9 | G 4.55 | H 3.88 | I 2.37 | K 3.57 | L 3.95 | M 3.69 | N 4.11 | P 4.53 | Q 4.21 | R 3.57 | S 4.3 | V 2.92 | W 2.64 | Y 2.98
L9: A 4.14 | C 3.91 | D 4.92 | E 4.76 | F 4.05 | G 4.32 | H 3.78 | I 4 | K 4.16 | M 4.03 | N 4.54 | P 3.69 | Q 4.59 | R 4.58 | S 3.63 | T 4.67 | V 4.14 | W 3.15 | Y 4.35
K10: A 4.61 | C 3.66 | D 4.56 | E 4.5 | F 2.18 | G 3.78 | H 3.48 | I 2.13 | L 2.55 | M 2.95 | N 4.37 | P 4.17 | Q 3.65 | R 3.03 | S 4.01 | T 3.46 | V 2.7 | W 2.17 | Y 2.98
V11: A 4.12 | C 3.96 | D 4.91 | E 5.09 | F 3.22 | G 3.42 | H 4.08 | I 3.24 | K 3.65 | L 3.55 | M 3.77 | N 4.21 | P 4.54 | Q 3.32 | R 3.05 | S 4.19 | T 3.66 | W 2.44 | Y 3.82
C12: A 5.06 | D 4.79 | E 4.39 | F 3.7 | G 4.81 | H 4.66 | I 3.9 | K 4.43 | L 4.06 | M 4.07 | N 4.31 | P 4.73 | Q 4.1 | R 4.14 | S 4.07 | T 4.62 | V 3.65 | W 4.28 | Y 3.64
K13: A 3.98 | C 3.24 | D 4.88 | E 4.69 | F 2.11 | G 4.33 | H 3.56 | I 2.33 | L 2.96 | M 3.05 | N 4.03 | P 4.43 | Q 4.14 | R 3.01 | S 4.14 | T 4.06 | V 3.42 | W 2.25 | Y 3.5
P14: A 3.59 | C 3.02 | D 4.76 | E 4.71 | F 2.71 | G 4.55 | H 4.07 | I 2.76 | K 4.1 | L 2.81 | M 3.08 | N 4.72 | Q 4.41 | R 4.27 | S 4.27 | T 4.16 | V 3.55 | W 3.47 | Y 3.37
Q15: A 3.91 | C 3.58 | D 4.49 | E 4.41 | F 2.69 | G 3.93 | H 3.65 | I 3.03 | K 3.69 | L 2.96 | M 3.28 | N 4.04 | R 3.69 | S 3.86 | T 4.08 | V 3.65 | W 3.5 | Y 2.64
A16: C 3.6 | D 4.41 | E 4.45 | F 2.92 | G 3.98 | H 4.14 | I 3.56 | K 4.15 | L 3.69 | M 3.54 | N 4.04 | P 3.62 | Q 3.96 | R 3.58 | S 4.02 | T 4.07 | V 3.94 | W 2.02 | Y 3.38
P17: A 3.97 | C 3.51 | D 4.52 | E 4.27 | F 3.03 | G 3.74 | H 3.58 | I 4 | K 4.13 | L 3.07 | M 3.68 | N 3.21 | Q 4.36 | R 3.17 | S 3.62 | T 3.81 | V 3.95 | W 2.3 | Y 3.57
Q18: A 4.65 | C 3.79 | D 4.59 | E 3.23 | F 2.39 | G 3.59 | H 3.69 | I 3.92 | K 3.97 | L 3.31 | M 3.28 | N 3.52 | P 3.75 | R 3.8 | S 3.58 | T 3.82 | V 3.56 | Y 3.13
K19: A 3.8 | C 2.92 | D 3.92 | E 3.77 | F 2.96 | G 3.5 | H 3.78 | I 2.54 | L 3.01 | M 3.53 | N 3.56 | P 3.96 | Q 3.85 | R 3.55 | S 3.72 | T 4.06 | V 4.06 | W 2.36 | Y 3.36
L20: A 4.75 | C 4.18 | D 4.98 | E 5.09 | F 3.31 | G 4.91 | H 4.43 | I 3.42 | K 4.9 | M 4.13 | N 4.29 | P 4.48 | Q 4.47 | R 4.42 | S 4.34 | T 4.5 | V 4.03 | W 3.51 | Y 4.46
D21: A 2.65 | C 3.05 | E 3.98 | F 2.66 | G 3.3 | H 2.86 | I 2.74 | K 3.77 | L 2.44 | M 2.86 | N 3.17 | P 3.35 | Q 3.19 | R 3.19 | S 3.85 | T 3.7 | V 2.87 | W 2.36 | Y 2.73
P22: A 3.16 | C 2.95 | D 4.38 | E 4.13 | F 2.35 | G 3.39 | H 3.13 | I 2.08 | K 4 | L 2.93 | M 2.98 | N 3.38 | Q 4.25 | R 3.84 | S 2.87 | T 3.54 | V 2.87 | W 2.83 | Y 3.06
T23: A 3.47 | C 3.89 | D 4.8 | E 4.91 | F 2.98 | G 3.8 | H 3.44 | I 3.37 | K 4.16 | L 3.06 | M 3.32 | N 4.2 | Q 4.21 | R 3.48 | S 3.85 | V 3.4 | W 2.48 | Y 2.94
L24: A 4.34 | C 4.35 | D 5.42 | E 4.8 | F 4.32 | G 4.52 | H 4.75 | I 4.1 | K 4.21 | M 3.94 | N 4.56 | Q 4.37 | R 4.33 | S 4.53 | T 4.39 | V 4.52 | W 3.3 | Y 3.37
